Test results reported in patent US20260248932A1, “CATIONIC AMPHIPHILIC POLYPEPTIDE FOR DELIVERING RNA AND METHOD FOR PREPARING THE SAME” (INHA UNIVERSITY RESEARCH AND BUSINESS FOUNDATION, priority 2023, published 2026).

Assay: Critical association concentration (CAC) by static light scattering
Format: physicochemical
Conditions: 10 mM HEPES buffer (pH 7.3), 0.001~4 mg/ml
Description: For the light scattered intensity of the polypeptide, the static light scattering was measured at 25° C. and a detection angle of 173° using Zetasizer Pro (Malvern Panalytical, Worcestershire, UK) equipped with a He—Ne laser (2=633 nm). Samples in 10 mM HEPES buffer (pH 7.3) were analyzed using a low-volume quartz cuvette (ZEN2112, Malvern Panalytic).
The critical association concentration (hereinafter referred to as CAC) of peptides measured by static light scattering was analyzed. […] Homopolypeptide (DDDDDDDD) used as the control group was well dissolved in buffer (pH 7.3), but no CAC appeared up to treatment concentration of 4 mg/mL.

Sequence: DDDDDDDD [octameric homopolypeptide of L-Asp(DET) units used as the control group]
- critical association concentration (CAC): > 4 mg/mL
